Measured values published in publication PMC7137648.

B1: SR-F1 (SREC-I, SCARF1): N289Q (protein)
parent chain: MGLGLLLPLLLLWTRGTQGSELDPKGQHVCVASSPSAELQCCAGWRQKDQECTIPICEGPDACQKDEVCVKPGLCRCKPGFFGAHCSSRCPGQYWGPDCRESCPCHPHGQCEPATGACQCQADRWGARCEFPCACGPHGRCDPATGVCHCEPGWWSSTCRRPCQCNTAAARCEQATGACVCKPGWWGRRCSFRCNCHGSPCEQDSGRCACRPGWWGPECQQQCECVRGRCSAASGECTCPPGFRGARCELPCPAGSHGVQCAHSCGRCKHNEPCSPDTGSCESCEPGWNGTQCQQPCLPGTFGESCEQQCPHCRHGEACEPDTGHCQRCDPGWLGPRCEDPCPTGTFGEDCGSTCPTCVQGSCDTVTGDCVCSAGYWGPSCNASCPAGFHGNNCSVPCECPEGLCHPVSGSCQPGSGSRDTALIAGSLVPLLLLFLGLACCACCCWAPRSDLKDRPARDGATVSRMKLQVWGTLTSLGSTLPCRSLSSHKLPWVTVSHHDPEVPFNHSFIEPPSAGWATDDSFSSDPESGEADEVPAYCVPPQEGMVPVAQAGSSEASLAAGAFPPPEDASTPFAIPRTSSLARAKRPSVSFAEGTKFAPQSRRSSGELSSPLRKPKRLSRGAQSGPEGREAEESTGPEEAEAPESFPAAASPGDSATGHRRPPLGGRTVAEHVEAIEGSVQESSGPVTTIYMLAGKPRGSEGPVRSVFRHFGSFQKGQAEAKVKRAIPKPPRQALNRKKGSPGLASGSVGQSPNSAPKAGLPGATGPMAVRPEEAVRGLGAGTESSRRAQEPVSGCGSPEQDPQKQAEEERQEEPEYENVVPISRPPEP
B2: SR-F1 (SREC-I, SCARF1): N393Q (protein)
parent chain: MGLGLLLPLLLLWTRGTQGSELDPKGQHVCVASSPSAELQCCAGWRQKDQECTIPICEGPDACQKDEVCVKPGLCRCKPGFFGAHCSSRCPGQYWGPDCRESCPCHPHGQCEPATGACQCQADRWGARCEFPCACGPHGRCDPATGVCHCEPGWWSSTCRRPCQCNTAAARCEQATGACVCKPGWWGRRCSFRCNCHGSPCEQDSGRCACRPGWWGPECQQQCECVRGRCSAASGECTCPPGFRGARCELPCPAGSHGVQCAHSCGRCKHNEPCSPDTGSCESCEPGWNGTQCQQPCLPGTFGESCEQQCPHCRHGEACEPDTGHCQRCDPGWLGPRCEDPCPTGTFGEDCGSTCPTCVQGSCDTVTGDCVCSAGYWGPSCNASCPAGFHGNNCSVPCECPEGLCHPVSGSCQPGSGSRDTALIAGSLVPLLLLFLGLACCACCCWAPRSDLKDRPARDGATVSRMKLQVWGTLTSLGSTLPCRSLSSHKLPWVTVSHHDPEVPFNHSFIEPPSAGWATDDSFSSDPESGEADEVPAYCVPPQEGMVPVAQAGSSEASLAAGAFPPPEDASTPFAIPRTSSLARAKRPSVSFAEGTKFAPQSRRSSGELSSPLRKPKRLSRGAQSGPEGREAEESTGPEEAEAPESFPAAASPGDSATGHRRPPLGGRTVAEHVEAIEGSVQESSGPVTTIYMLAGKPRGSEGPVRSVFRHFGSFQKGQAEAKVKRAIPKPPRQALNRKKGSPGLASGSVGQSPNSAPKAGLPGATGPMAVRPEEAVRGLGAGTESSRRAQEPVSGCGSPEQDPQKQAEEERQEEPEYENVVPISRPPEP
B3: SR-F1 (SREC-I, SCARF1): N382Q (protein)
parent chain: MGLGLLLPLLLLWTRGTQGSELDPKGQHVCVASSPSAELQCCAGWRQKDQECTIPICEGPDACQKDEVCVKPGLCRCKPGFFGAHCSSRCPGQYWGPDCRESCPCHPHGQCEPATGACQCQADRWGARCEFPCACGPHGRCDPATGVCHCEPGWWSSTCRRPCQCNTAAARCEQATGACVCKPGWWGRRCSFRCNCHGSPCEQDSGRCACRPGWWGPECQQQCECVRGRCSAASGECTCPPGFRGARCELPCPAGSHGVQCAHSCGRCKHNEPCSPDTGSCESCEPGWNGTQCQQPCLPGTFGESCEQQCPHCRHGEACEPDTGHCQRCDPGWLGPRCEDPCPTGTFGEDCGSTCPTCVQGSCDTVTGDCVCSAGYWGPSCNASCPAGFHGNNCSVPCECPEGLCHPVSGSCQPGSGSRDTALIAGSLVPLLLLFLGLACCACCCWAPRSDLKDRPARDGATVSRMKLQVWGTLTSLGSTLPCRSLSSHKLPWVTVSHHDPEVPFNHSFIEPPSAGWATDDSFSSDPESGEADEVPAYCVPPQEGMVPVAQAGSSEASLAAGAFPPPEDASTPFAIPRTSSLARAKRPSVSFAEGTKFAPQSRRSSGELSSPLRKPKRLSRGAQSGPEGREAEESTGPEEAEAPESFPAAASPGDSATGHRRPPLGGRTVAEHVEAIEGSVQESSGPVTTIYMLAGKPRGSEGPVRSVFRHFGSFQKGQAEAKVKRAIPKPPRQALNRKKGSPGLASGSVGQSPNSAPKAGLPGATGPMAVRPEEAVRGLGAGTESSRRAQEPVSGCGSPEQDPQKQAEEERQEEPEYENVVPISRPPEP

Tests used:
Details in all cases: glycan lost; control: wild-type SR-F1(20-421)
[1] = MALDI-TOF mass, SDS-PAGE, N-terminal sequencing
[2] = Ni-NTA purified yield from 293-F supernatant
[3] = limited tryptic and chymotryptic proteolysis, SDS-PAGE

Protein	other: proteolytic processing [1]	expression_or_secretion, other: protein purified per 100 ml supernatant [2]	structure_or_conformation [3]
B1	increases, extra loss of 2.3–2.6 kDa compared with the N382Q and N393Q mutants	decreases, 70 vs 450	no change
B2		decreases, 200 vs 450	no change
B3		decreases, 85 vs 450	no change
